{"source": "patent US20080039402A1", "about": "(UNIVERSITE BORDEAUX 2, published 2008)", "note": "Positions of bridges follow the written chain, without caps; N, C: chain ends. Non-standard residues stand in square brackets, D forms with d. No end group written: not given here. βAla = NCCC(=O)O; Sar = CNCC(=O)O", "data": [{"biological_target": "T1, CD23 (FCεRII) on human CD23+ cells (human, UniProt P06734 1-321)", "T1 sequence (looked up)": "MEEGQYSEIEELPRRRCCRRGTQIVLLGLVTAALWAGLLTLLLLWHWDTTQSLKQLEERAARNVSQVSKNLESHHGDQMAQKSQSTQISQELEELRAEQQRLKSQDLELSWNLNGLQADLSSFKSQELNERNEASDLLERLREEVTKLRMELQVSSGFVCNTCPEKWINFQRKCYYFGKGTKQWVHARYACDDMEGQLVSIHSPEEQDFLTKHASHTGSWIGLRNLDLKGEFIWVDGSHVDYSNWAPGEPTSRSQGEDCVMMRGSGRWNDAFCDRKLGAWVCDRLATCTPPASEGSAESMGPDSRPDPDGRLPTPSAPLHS", "assay": "cytofluorometry; CD23+ cells pre-incubated with peptide, then CD23-Ab; Experiment 1", "units": {"% of fluorescence intensity recovered, compared to cells incubated in medium alone": "%"}, "values": [{"molecule": "unrelated control peptide (pNu)", "% of fluorescence intensity recovered, compared to cells incubated in medium alone": 120}]}, {"biological_target": "T1, CD23 (FCεRII) on human CD23+ cells", "assay": "cytofluorometry; CD23+ cells pre-incubated with peptide, then CD23-Ab; Experiment 3", "units": {"% of fluorescence intensity recovered, compared to cells incubated in medium alone": "%"}, "values": [{"molecule": "unrelated control peptide (pNu)", "% of fluorescence intensity recovered, compared to cells incubated in medium alone": 94}]}, {"biological_target": "T1, CD23 (FCεRII) on human CD23+ cells", "assay": "cytofluorometry; CD23+ cells pre-incubated with peptide, then IgE/anti-IgE-FITC; Experiment 2", "units": {"% of fluorescence intensity recovered, compared to cells incubated in medium alone": "%"}, "values": [{"molecule": "unrelated control peptide (pNu)", "% of fluorescence intensity recovered, compared to cells incubated in medium alone": 110}]}, {"biological_target": "T1, CD23 (FCεRII) on human CD23+ cells", "assay": "cytofluorometry; CD23+ cells pre-incubated with peptide, then IgE/anti-IgE-FITC; Experiment 1", "units": {"% of fluorescence intensity recovered, compared to cells incubated in medium alone": "%"}, "values": [{"molecule": "unrelated control peptide (pNu)", "% of fluorescence intensity recovered, compared to cells incubated in medium alone": 73}]}, {"biological_target": "T1, CD23 (FCεRII) on human CD23+ cells", "assay": "inhibition of anti-CD23-FITC mAb binding to CD23+ cells; Activity grade", "values": [{"molecule": "Ac-HENWPS-NH2", "note": "[Compound 243]", "binding result": "binds"}, {"molecule": "HEQWPS", "note": "[Compound 364]", "binding result": "binds"}, {"molecule": "RENWPS", "note": "[Compound 384]", "binding result": "binds"}, {"molecule": "HQNWPS-NH2", "note": "[Compound 400]", "binding result": "binds"}, {"molecule": "HENWP-NH2", "note": "[Compound 249]", "binding result": "binds"}, {"molecule": "FHENWAS", "note": "[Compound 316]", "binding result": "binds"}, {"molecule": "FHANWPS", "note": "[Compound 337]", "binding result": "binds"}, {"molecule": "FAENWPS", "note": "[Compound 338]", "binding result": "binds"}, {"molecule": "FHENWPA", "note": "[Compound 349]", "binding result": "binds"}, {"molecule": "HENWPS-NH2", "note": "[Compound 244]", "binding result": "binds"}, {"molecule": "HNEWPS", "note": "[Compound 288]", "binding result": "binds"}, {"molecule": "HEPWRS", "note": "[Compound 289]", "binding result": "binds"}, {"molecule": "HPNWRS", "note": "[Compound 281]", "binding result": "binds"}, {"molecule": "HCNWCS (Cys at residues 2 and 5; no disulfide is stated for this compound)", "note": "[Compound 290]", "binding result": "binds"}, {"molecule": "HENWPSG (cyclic H2T (N-terminus amino group to C-terminus carboxyl group linkage))", "note": "[Compound 298]", "binding result": "binds"}, {"molecule": "FH[βAla]NWPS", "note": "[Compound 340]", "binding result": "binds"}, {"molecule": "F[βAla]ENWPS", "note": "[Compound 339]", "binding result": "binds"}, {"molecule": "SPWNEHF (Comment 'scrambled'; L-amino acids, reverse order of FHENWPS)", "note": "[Compound 397 (scrambled)]", "binding result": "binds"}]}, {"biological_target": "T1, CD23 (FCεRII) on human CD23+ cells", "assay": "cell-based or functional assay", "units": {"% Inhibition (nitrites; inhibition of iNOS production by activated CD23+ macrophages)": "%", "TNF-α in supernatant of CD23+ cells, pNu + CD23-Ab, Experiment 1": "pg TNF-α/ml", "TNF-α in supernatant of CD23+ cells, pNu + CD23-Ab, Experiment 2": "pg TNF-α/ml", "[NO2-], macrophages from synovial fluid of Rheumatoid Arthritis patients, pNu + CD23-Ab, Experiment 1": "µM", "[NO2-], macrophages from synovial fluid of Rheumatoid Arthritis patients, pNu + CD23-Ab, Experiment 2": "µM"}, "values": [{"molecule": "Compound 411 (Ac N W CO2H) (peptide)", "% Inhibition (nitrites; inhibition of iNOS production by activated CD23+ macrophages)": 84}, {"molecule": "Compound 410 (Ac N W BetaA CO2H) (peptide)", "% Inhibition (nitrites; inhibition of iNOS production by activated CD23+ macrophages)": 61}, {"molecule": "Compound 489 (NH2 G[allyl-] N W G[allyl-]) (peptide)", "% Inhibition (nitrites; inhibition of iNOS production by activated CD23+ macrophages)": 62}, {"molecule": "Compound 491 (Ac w n CO2H) (peptide)", "% Inhibition (nitrites; inhibition of iNOS production by activated CD23+ macrophages)": 94}, {"molecule": "Compound 490 (G[allyl-] N W G[allyl-] S) (peptide)", "% Inhibition (nitrites; inhibition of iNOS production by activated CD23+ macrophages)": 81}, {"molecule": "Compound 492 (Ac n w CO2H) (peptide)", "% Inhibition (nitrites; inhibition of iNOS production by activated CD23+ macrophages)": 77}, {"molecule": "unrelated control peptide (pNu)", "TNF-α in supernatant of CD23+ cells, pNu + CD23-Ab, Experiment 1": 162, "TNF-α in supernatant of CD23+ cells, pNu + CD23-Ab, Experiment 2": 132, "[NO2-], macrophages from synovial fluid of Rheumatoid Arthritis patients, pNu + CD23-Ab, Experiment 1": 15.2, "[NO2-], macrophages from synovial fluid of Rheumatoid Arthritis patients, pNu + CD23-Ab, Experiment 2": 14.4}, {"molecule": "HENWPS", "note": "[P30K (H E N W P S)]", "% Inhibition (nitrites; inhibition of iNOS production by activated CD23+ macrophages)": 74}, {"molecule": "FHEQWPS", "note": "[P30O (F H E Q W P S)]", "% Inhibition (nitrites; inhibition of iNOS production by activated CD23+ macrophages)": 73}, {"molecule": "HENWGS (cyclic H2T (N-terminus amino group to C-terminus carboxyl group linkage))", "note": "[Compound 299]", "% Inhibition (nitrites; inhibition of iNOS production by activated CD23+ macrophages)": 74}, {"molecule": "HENWES (lactam N-5)", "note": "[Compound 327]", "% Inhibition (nitrites; inhibition of iNOS production by activated CD23+ macrophages)": 60}, {"molecule": "HENWKS", "note": "[Compound 333]", "% Inhibition (nitrites; inhibition of iNOS production by activated CD23+ macrophages)": 69}, {"molecule": "HENAPS", "note": "[Compound 436]", "% Inhibition (nitrites; inhibition of iNOS production by activated CD23+ macrophages)": 60}, {"molecule": "FHEFWPT", "note": "[FHEFWPT (p30D)]", "% Inhibition (nitrites; inhibition of iNOS production by activated CD23+ macrophages)": 68}, {"molecule": "FHSQWPN", "note": "[FHSQWPN (p30E)]", "% Inhibition (nitrites; inhibition of iNOS production by activated CD23+ macrophages)": 65}, {"molecule": "HENWS (cyclic H2T (N-terminus amino group to C-terminus carboxyl group linkage))", "note": "[Compound 437]", "% Inhibition (nitrites; inhibition of iNOS production by activated CD23+ macrophages)": 56}, {"molecule": "FHKPWRA", "note": "[P30G (F H K P W R A)]", "% Inhibition (nitrites; inhibition of iNOS production by activated CD23+ macrophages)": 55}, {"molecule": "FHEAWPS", "note": "[Compound 331]", "% Inhibition (nitrites; inhibition of iNOS production by activated CD23+ macrophages)": 43}, {"molecule": "FHENW[βAla]S", "note": "[Compound 328]", "% Inhibition (nitrites; inhibition of iNOS production by activated CD23+ macrophages)": 26}, {"molecule": "FHENWP", "note": "[P30L (F H E N W P)]", "% Inhibition (nitrites; inhibition of iNOS production by activated CD23+ macrophages)": 78}, {"molecule": "FHENWPT", "note": "[P30M (F H E N W P T)]", "% Inhibition (nitrites; inhibition of iNOS production by activated CD23+ macrophages)": 76}, {"molecule": "FHENWPS", "note": "[FHENWPS peptide (p30A)]", "% Inhibition (nitrites; inhibition of iNOS production by activated CD23+ macrophages)": 74}, {"molecule": "cyclo(HENW[Sar]S) (SMILES CN1CC(=O)N[C@@H](CO)C(=O)N[C@@H](Cc2c[nH]cn2)C(=O)N[C@@H](CCC(=O)O)C(=O)N[C@@H](CC(N)=O)C(=O)N[C@@H](Cc2c[nH]c3ccccc23)C1=O)", "note": "[Compound 398]", "% Inhibition (nitrites; inhibition of iNOS production by activated CD23+ macrophages)": 74}]}, {"biological_target": "T1, CD23 (FCεRII) on human CD23+ cells", "assay": "cytofluorometry; CD23+ cells pre-incubated with peptide, then CD23-Ab; Experiment 2", "units": {"% of fluorescence intensity recovered, compared to cells incubated in medium alone": "%"}, "values": [{"molecule": "unrelated control peptide (pNu)", "% of fluorescence intensity recovered, compared to cells incubated in medium alone": 88}]}]}
